The values below come from US20170226172A1 (NEW YORK UNIVERSITY, published 2017).

For assay [1], the target named is T1, alpha-Klotho with endogenous FGFRs on HEK293-alphaKlotho cells. The assay can be described thus: FACS competition on HEK293-alphaKlotho cells against a sub-saturating dose of FGF23. An excerpt:
IC50 values were derived from the resulting inhibition binding curves (FIG. 7).

For assay [2], the target named is T2, FGFR4/alpha-klotho on BaF3 cells (Example 12) (Homo sapiens (Human), UniProt P22455 22-802; Q9UEF7 34-1012).
T2 construct: also called BaF3 cells expressing FGFR4 and αklotho; BaF3-FGFR4/αklotho cells
The assay can be described thus: FACS competitive binding on BaF3 cells expressing FGFR4 and Klotho, against 0.2 ug/mL FGF-23; drug 0 to 2430 nM; the number stands beside the legend entry under the title 'FACS CO… BINDING IC50', the unit is that of the axis (nM DRUG).

The target of assay [3] is T3, FGFR1c/alpha-klotho on BaF3 cells (Example 12) (Homo sapiens (Human), UniProt P11362 22-822; Q9UEF7 34-1012).
T3 construct: also called BaF3 cells expressing FGFR1c and αklotho; BAF3 lines engineered to express FGFR1c/αklotho
The assay can be described thus: FACS competitive binding on BaF3 cells expressing FGFR1c and Klotho, against 0.2 ug/mL FGF-23; drug 0 to 2430 nM; the number stands beside the legend entry under the title 'FACS CO… BINDING IC50', the unit is that of the axis (nM DRUG).

Assay [4] has as its target T1, alpha-Klotho with endogenous FGFRs on …. The assay can be described thus: cell-based or functional assay.
Assay [5] shares this target. In words: FACS competition on HEK293-alphaKlotho cells: peptide 0.01 to about 1000 nM against 0.2 ug/mL full-length human FGF23, geo mean of PE intensity.
The target of assay [6] is T4, FGFR1c/alpha-klotho receptor complex, murine, pre-formed (SPR analyte) (mouse, UniProt P16092 22-376; O35082 35-982).
T4 construct: also called pre-formed receptor complex (mouse)
T4 sequence (looked up) 1: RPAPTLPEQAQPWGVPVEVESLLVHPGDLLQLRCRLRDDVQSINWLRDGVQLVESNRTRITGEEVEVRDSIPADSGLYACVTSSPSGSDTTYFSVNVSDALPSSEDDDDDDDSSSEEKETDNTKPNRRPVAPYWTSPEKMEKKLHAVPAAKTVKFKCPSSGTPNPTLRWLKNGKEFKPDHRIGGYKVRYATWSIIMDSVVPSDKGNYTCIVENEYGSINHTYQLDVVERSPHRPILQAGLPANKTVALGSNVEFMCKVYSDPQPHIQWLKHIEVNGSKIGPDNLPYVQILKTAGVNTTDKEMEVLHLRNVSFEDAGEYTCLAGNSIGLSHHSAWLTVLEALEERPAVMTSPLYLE
T4 sequence (looked up) 2: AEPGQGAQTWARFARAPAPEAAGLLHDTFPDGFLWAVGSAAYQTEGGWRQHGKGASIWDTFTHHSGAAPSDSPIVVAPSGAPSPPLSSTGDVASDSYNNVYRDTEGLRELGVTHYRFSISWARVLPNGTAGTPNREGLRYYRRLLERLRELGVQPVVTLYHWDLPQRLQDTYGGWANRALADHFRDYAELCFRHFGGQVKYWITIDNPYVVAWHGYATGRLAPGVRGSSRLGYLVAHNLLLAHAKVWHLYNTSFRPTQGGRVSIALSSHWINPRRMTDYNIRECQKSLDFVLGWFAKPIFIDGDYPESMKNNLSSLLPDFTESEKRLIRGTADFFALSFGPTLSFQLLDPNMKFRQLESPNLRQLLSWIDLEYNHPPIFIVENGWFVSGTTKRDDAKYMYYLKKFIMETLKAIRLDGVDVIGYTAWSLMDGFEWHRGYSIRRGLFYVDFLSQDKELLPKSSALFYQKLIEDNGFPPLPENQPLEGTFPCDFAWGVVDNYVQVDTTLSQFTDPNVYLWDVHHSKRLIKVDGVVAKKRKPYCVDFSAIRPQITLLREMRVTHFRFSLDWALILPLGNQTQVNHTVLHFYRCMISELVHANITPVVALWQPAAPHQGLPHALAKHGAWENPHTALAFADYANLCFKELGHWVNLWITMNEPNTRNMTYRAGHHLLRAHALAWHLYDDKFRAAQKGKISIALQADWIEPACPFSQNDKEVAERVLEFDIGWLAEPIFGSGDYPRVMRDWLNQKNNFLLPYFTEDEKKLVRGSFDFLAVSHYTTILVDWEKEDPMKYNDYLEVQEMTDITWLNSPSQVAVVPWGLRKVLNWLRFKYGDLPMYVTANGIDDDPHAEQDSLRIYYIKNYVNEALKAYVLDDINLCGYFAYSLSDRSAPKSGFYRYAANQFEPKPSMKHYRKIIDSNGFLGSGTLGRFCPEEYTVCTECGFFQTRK
In words: SPR competition; full-length murine FGF23 on the Biacore chip, set amount of pre-formed receptor complex with increasing c-tail construct. The procedure: The potency of the human and murine constructs were determined via both competitive inhibition using SPR and cellular viability assays (Cell Titer Glo). […] Experiments were done in a species specific manner meaning that all components were from a single species, either mouse or human. For the functional experiments, BAF3 cells were engineered to stably express FGFR1c and α-klotho. BAF3 cells are dependent on IL-3 for growth. […] Once again this was done in a species specific manner.

The target of assay [7] is FGFR1c and alpha-klotho, murine, on BAF3 cells (Example 7) (mouse, UniProt P16092 22-822; O35082 35-1014). The assay can be described thus: cell-based or functional assay.
Assay [8] has as its target T1, alpha-Klotho with endogenous FGFRs on …. The assay can be described thus: FACS competition on HEK293-alphaKlotho cells: peptide 0.01 to about 1000 nM against 0.2 ug/mL full-length human FGF23, geo mean of PE intensity. This is another data set of the same source.
The target in assay [9] is FGFR1c and alpha-klotho, human, on BAF3 cells (Example 7) (human, UniProt P11362 22-822; Q9UEF7 34-1012). In words: cell-based or functional assay.
Assay [10] has as its target T1, alpha-Klotho with endogenous FGFRs on …. In words: FACS competition on HEK293-alphaKlotho cells: peptide 0.01 to about 1000 nM against 0.2 ug/mL full-length human FGF23, geo mean of PE intensity. The source holds these as a separate data set.

Like-named read-outs stand apart in the source and are kept apart here.

B1: Wild Type Human FGF23 c-tail 180-251 (72 amino acid peptide) (peptide)
peptide: SAEDDSERDPLNVLKPRARMTPAPASCSQELPSAEDNSPMASDPLGVVRGGRVNTHAGGTGPEGCRPFAKFI
notes: also called FGF23 c-tail peptide; unconjugated FGF23 c-tail peptide
Turning to B1, the “IC50 (read off the curve)” value in assay [1] is approximately 20 nM. The IC50 in assay [2] was 23 nM; in [3], 15.4 nM; in assay [5], 2.9 nM. Moreover, in [4], the “IC50, inhibition of FGF23 signaling (Egr1-luciferase) in HEK293 cells expressing alpha-klotho (prior to assay optimization)” value stood at 81.9 nM.

B2: Wild Type Murine FGF23 c-tail Fc (muFGF23-c-tail-FC1), mature (Fc fusion)
chain: VPRDAGCKPCICTVPPVSSVFIFPPKPKDVLTITLTPKVTCVVVDISKDDPEVQFSWFVDDVEVHTAQTQPREEQFNSTFRSVSELPIMHQDWLNGKAFACAVNSAAFPAPIEKTISKTKGRPKAPQVYTIPPPKEQMAKDKVSLTCMITDFFPEDITVEWQWNGQPAENYKNTQPIMDTDGSYFVYSKLNVQKSNWEAGNTFTCSVLHEGLHNHHTEKSLSHSPGGGGGSSAEDPPERDPLNVLKPRPRATPVPVSCSRELPSAEEGGPAASDPLGVLRRGRGDARGGAGGADRCRPFPRFV
notes: also called Murine FGF23-Fc; surrogate molecule
B2 had a Ki in assay [6] of 10 nM. In addition, in assay [7], the “IC50, cellular viability (Cell Titer Glo) of BAF3 cells expressing FGFR1c and alpha-klotho kept alive by FGF23” value was determined as 35 nM.

B3: Human FGF23 c-tail 70 (-2 amino acid construct) peptide (peptide)
peptide: SAEDDSERDPLNVLKPRARMTPAPASCSQELPSAEDNSPMASDPLGVVRGGRVNTHAGGTGPEGCRPFAK
notes: also called truncated FGF23 c-tail peptide, 70 amino acids
B3 registered an IC50 in assay [8] of 2.4 nM.

B4: Human Wild Type FGF23 c-tail Fc (FGF23-c-tail-FC1), mature (Fc fusion)
chain: EPKSCDKTHTCPPCPAPEAAGAPSVFLFPPKPKDTLMISRTPEVTCVVVDVSHEDPEVKFNWYVDGVEVHNAKTKPREEQYNSTYRVVSVLTVLHQDWLNGKEYKCKVSNKALPAPIEKTISKAKGQPREPQVYTLPPSREEMTKNQVSLTCLVKGFYPSDIAVEWESNGQPENNYKTTPPVLDSDGSFFLYSKLTVDKSRWQQGNVFSCSVMHEALHNHYTQKSLSLSPGGGGGSSAEDDSERDPLNVLKPRARMTPAPASCSQELPSAEDNSPMASDPLGVVRGGRVNTHAGGTGPEGCRPFAKFI
notes: Made in CHO cells; also called HuFGF23 c-tail Fc; huFGF23-Fc
Take B4: the “IC50 (read off the curve)” value in assay [1] was approximately 10 nM. In assay [3], this molecule yielded an IC50 of 20.4 nM. For the same molecule, in [4], the “IC50, inhibition of FGF23-mediated Egr1-luciferase activity in HEK293 cells expressing alpha-klotho (after assay optimization)” value amounted to 21.5 nM and the “IC50, inhibition of FGF23-mediated Egr1-luciferase activity in HEK293 cells expressing alpha-klotho (prior to assay optimization)” value was determined as 202 nM. Besides, the “IC50, cellular viability (Cell Titer Glo) of BAF3 cells expressing FGFR1c and alpha-klotho kept alive by FGF23” value in assay [9] was found to be 53 nM.

B5: Human FGF23 c-tail 69 (-3 amino acid construct) peptide (peptide)
peptide: SAEDDSERDPLNVLKPRARMTPAPASCSQELPSAEDNSPMASDPLGVVRGGRVNTHAGGTGPEGCRPFA
notes: also called truncated FGF23 c-tail peptide, 69 amino acids
With B5, the IC50 in assay [10] was 2.8 nM.

In general, IC50 refers to the concentration that inhibits the measured activity by half. A low value points to higher potency. The Ki is a measure of affinity in units of concentration, obtained from inhibition or displacement. Lower therefore signals tighter binding.
